According to US7183387 (Genentech, dated 2007):
Values belong to the binder of their own block, whether it stands above or below them.

What was measured:
[1] = molecular target: T1, human FcγRIIIA-V158 α subunit extracellular domain-His6-GST fusion (human, UniProt P08637 17-208); assay: ELISA, IgG complex, receptor coated
T1 construct: ECD-6His-GST fusion made in 293 cells; also called FcγRIIIA-Val158; not shown: glutathione S transferase (GST)

[2] = molecular target: T2, human FcγRIIIA-F158 α subunit extracellular domain-His6-GST fusion (human, UniProt P08637 17-208); assay: ELISA, IgG complex, receptor coated
T2 construct: ECD-6His-GST fusion made in 293 cells; also called FcγRIIIA-Phe158; not shown: glutathione S transferase (GST)
T2 sequence (P08637 other isoform, or with tags, fused parts or gaps, form in doubt): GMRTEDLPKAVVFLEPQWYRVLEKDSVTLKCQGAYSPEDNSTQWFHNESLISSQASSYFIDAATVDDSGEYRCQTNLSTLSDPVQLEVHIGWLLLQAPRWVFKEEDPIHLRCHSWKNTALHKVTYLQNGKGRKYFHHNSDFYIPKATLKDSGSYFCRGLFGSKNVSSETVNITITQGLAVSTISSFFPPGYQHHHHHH

[3] = molecular target: T3, human FcγRIIA-R131 α subunit extracellular domain-His6-GST fusion (human, UniProt P12318 34-217); assay: ELISA, IgG complex, receptor coated
T3 construct: ECD-6His-GST fusion made in 293 cells; also called FcγRIIA-Arg131; not shown: glutathione S transferase (GST)
T3 sequence: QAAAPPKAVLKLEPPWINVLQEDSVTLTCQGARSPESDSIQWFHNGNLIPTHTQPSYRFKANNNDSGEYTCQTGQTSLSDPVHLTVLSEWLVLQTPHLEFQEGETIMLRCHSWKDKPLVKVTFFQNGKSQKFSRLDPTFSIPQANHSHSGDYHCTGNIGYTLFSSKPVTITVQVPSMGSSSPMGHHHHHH

[4] = molecular target: T1, human FcγRIIIA-V158 α subunit …; assay: ELISA, IgG monomer, receptor coated

T1 sequence (P08637 other isoform, or with tags, fused parts or gaps, form in doubt): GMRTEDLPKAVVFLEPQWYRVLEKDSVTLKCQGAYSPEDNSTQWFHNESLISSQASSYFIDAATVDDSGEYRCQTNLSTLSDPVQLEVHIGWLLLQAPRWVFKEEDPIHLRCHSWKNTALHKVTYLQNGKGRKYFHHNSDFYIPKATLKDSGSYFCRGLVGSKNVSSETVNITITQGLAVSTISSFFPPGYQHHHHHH

B1: anti-IgE E27 IgG1 variant K334(353)A (antibody)
heavy: not shown
light: DIQLTQSPSSLSASVGDRVTITCRASKPVDGEGDSYLNWYQQKPGKAPKLLIYAASYLESGVPSRFSGSGSGTDFTLTISSLQPEDFATYYCQQSHEDPYTFGQGTKVEIKRTVAAPSVFIFPPSDEQLKSGTASVVCLLNNFYPREAKVQWKVDNALQSGNSQESVTEQDSKDSTYSLSSTLTLSKADYEKHKVYACEVTHQGLSSPVTKSFNRGEC
notes: Fc variant of E27; also called IG2 55; G55
ratio of binding, variant/native IgG1 (mean) [1]: 1.07 ratio
ratio of binding, variant/native IgG1 (mean) [2]: 1.39 ratio
ratio of binding, variant/native IgG1 (mean) [3]: 1.01 ratio
ratio of binding, variant/native IgG1 (mean) [4]: 1.6 ratio

B2: anti-IgE E27 IgG1 variant D265(278)A (antibody)
heavy: not shown
light: B1 light
notes: Fc variant of E27; also called IG2 14; G14
ratio of binding, variant/native IgG1 (mean) [1]: 0.01 ratio
ratio of binding, variant/native IgG1 (mean) [2]: 0.09 ratio
ratio of binding, variant/native IgG1 (mean) [3]: 0.07 ratio

B3: anti-IgE E27 IgG1 variant E293(310)Q (antibody)
heavy: not shown
light: B1 light
notes: Fc variant of E27
ratio of binding, variant/native IgG1 (mean) [1]: 1 ratio
ratio of binding, variant/native IgG1 (mean) [2]: 0.99 ratio
ratio of binding, variant/native IgG1 (mean) [3]: 0.85 ratio
ratio of binding, variant/native IgG1 (mean) [4]: 0.97 ratio

B4: anti-IgE E27 IgG1 variant K290(307)G (antibody)
heavy: not shown
light: B1 light
notes: Fc variant of E27; also called IG2 177
ratio of binding, variant/native IgG1 (mean) [1]: 1.11 ratio
ratio of binding, variant/native IgG1 (mean) [2]: 1.23 ratio
ratio of binding, variant/native IgG1 (mean) [3]: 1.07 ratio
ratio of binding, variant/native IgG1 (mean) [4]: 2.29 ratio

B5: anti-IgE E27 IgG1 variant K334(353)D (antibody)
heavy: not shown
light: B1 light
notes: Fc variant of E27; also called IG2 140
ratio of binding, variant/native IgG1 (mean) [1]: 1.07 ratio
ratio of binding, variant/native IgG1 (mean) [2]: 1.13 ratio
ratio of binding, variant/native IgG1 (mean) [3]: 0.51 ratio

B9: anti-IgE E27 IgG1 variant E333(352)Q (antibody)
heavy: not shown
light: B1 light
notes: Fc variant of E27
ratio of binding, variant/native IgG1 (mean) [1]: 1.05 ratio
ratio of binding, variant/native IgG1 (mean) [2]: 1.1 ratio
ratio of binding, variant/native IgG1 (mean) [3]: 0.7 ratio
ratio of binding, variant/native IgG1 (mean) [4]: 1 ratio

B10: anti-IgE E27 IgG1 variant E333(352)R (antibody)
heavy: not shown
light: B1 light
notes: Fc variant of E27
ratio of binding, variant/native IgG1 (mean) [1]: 0.92 ratio
ratio of binding, variant/native IgG1 (mean) [2]: 0.84 ratio
ratio of binding, variant/native IgG1 (mean) [3]: 0.75 ratio
ratio of binding, variant/native IgG1 (mean) [4]: 0.83 ratio

B11: anti-IgE E27 IgG1 variant K290(307)E (antibody)
heavy: not shown
light: B1 light
notes: Fc variant of E27; also called IG2 77
ratio of binding, variant/native IgG1 (mean) [1]: 0.98 ratio
ratio of binding, variant/native IgG1 (mean) [2]: 1.3 ratio
ratio of binding, variant/native IgG1 (mean) [3]: 1.1 ratio
ratio of binding, variant/native IgG1 (mean) [4]: 1.5 ratio

B12: anti-IgE E27 IgG1 variant K290(307)Q (antibody)
heavy: not shown
light: B1 light
notes: Fc variant of E27; also called IG2 73
ratio of binding, variant/native IgG1 (mean) [1]: 1.02 ratio
ratio of binding, variant/native IgG1 (mean) [2]: 1.4 ratio
ratio of binding, variant/native IgG1 (mean) [3]: 1.17 ratio
ratio of binding, variant/native IgG1 (mean) [4]: 1.3 ratio

B16: anti-IgE E27 IgG1 variant E333(352)K (antibody)
heavy: not shown
light: B1 light
notes: Fc variant of E27
ratio of binding, variant/native IgG1 (mean) [1]: 0.88 ratio
ratio of binding, variant/native IgG1 (mean) [2]: 0.85 ratio
ratio of binding, variant/native IgG1 (mean) [4]: 0.81 ratio

B17: anti-IgE E27 IgG1 variant K290(307)A (antibody)
heavy: not shown
light: B1 light
notes: Fc variant of E27; also called IG2 30; G30
ratio of binding, variant/native IgG1 (mean) [1]: 1.12 ratio
ratio of binding, variant/native IgG1 (mean) [2]: 1.28 ratio
ratio of binding, variant/native IgG1 (mean) [3]: 1.29 ratio
ratio of binding, variant/native IgG1 (mean) [4]: 1.13 ratio

B18: anti-IgE E27 IgG1 variant E333(352)A (antibody)
heavy: not shown
light: B1 light
notes: Fc variant of E27; also called IG2 54; G54
ratio of binding, variant/native IgG1 (mean) [1]: 1.1 ratio
ratio of binding, variant/native IgG1 (mean) [2]: 1.27 ratio
ratio of binding, variant/native IgG1 (mean) [3]: 0.92 ratio
ratio of binding, variant/native IgG1 (mean) [4]: 1.29 ratio

B21: anti-IgE E27 IgG1 variant K290(307)R (antibody)
heavy: not shown
light: B1 light
notes: Fc variant of E27; also called IG2 78
ratio of binding, variant/native IgG1 (mean) [1]: 1.07 ratio
ratio of binding, variant/native IgG1 (mean) [2]: 1.08 ratio
ratio of binding, variant/native IgG1 (mean) [3]: 1.05 ratio
ratio of binding, variant/native IgG1 (mean) [4]: 1.24 ratio

B22: anti-IgE E27 IgG1 variant E333(352)S (antibody)
heavy: not shown
light: B1 light
notes: Fc variant of E27; also called IG2 143
ratio of binding, variant/native IgG1 (mean) [1]: 0.99 ratio
ratio of binding, variant/native IgG1 (mean) [2]: 0.94 ratio
ratio of binding, variant/native IgG1 (mean) [4]: 1.07 ratio

B24: anti-IgE E27 IgG1 variant E333(352)D (antibody)
heavy: not shown
light: B1 light
notes: Fc variant of E27; also called Glu333Asp
ratio of binding, variant/native IgG1 (mean) [1]: 1 ratio
ratio of binding, variant/native IgG1 (mean) [2]: 1.26 ratio
ratio of binding, variant/native IgG1 (mean) [4]: 1.7 ratio

B25: anti-IgE E27 IgG1 variant E333(352)N (antibody)
heavy: not shown
light: B1 light
notes: Fc variant of E27; also called Glu333Asn
ratio of binding, variant/native IgG1 (mean) [1]: 0.64 ratio
ratio of binding, variant/native IgG1 (mean) [2]: 0.56 ratio
ratio of binding, variant/native IgG1 (mean) [3]: 0.59 ratio
ratio of binding, variant/native IgG1 (mean) [4]: 0.56 ratio

B28: anti-IgE E27 IgG1 variant K290(307)S (antibody)
heavy: not shown
light: B1 light
notes: Fc variant of E27; also called IG2 75
ratio of binding, variant/native IgG1 (mean) [1]: 1.05 ratio
ratio of binding, variant/native IgG1 (mean) [2]: 1.26 ratio
ratio of binding, variant/native IgG1 (mean) [3]: 1.27 ratio
ratio of binding, variant/native IgG1 (mean) [4]: 1.62 ratio

Continued, values first:

ratio of binding, variant/native IgG1 (mean) [2]: 0.86 ratio
ratio of binding, variant/native IgG1 (mean) [3]: 1 ratio
ratio of binding, variant/native IgG1 (mean) [4]: 0.54 ratio
B6: anti-IgE E27 IgG1 variant P331(350)S (antibody)
heavy: not shown
light: B1 light
notes: Fc variant of E27; also called IG2 198; Pro331Ser

ratio of binding, variant/native IgG1 (mean) [2]: 0.23 ratio
ratio of binding, variant/native IgG1 (mean) [3]: 0.86 ratio
ratio of binding, variant/native IgG1 (mean) [4]: 0.24 ratio
B7: anti-IgE E27 IgG1 variant P331(350)N (antibody)
heavy: not shown
light: B1 light
notes: Fc variant of E27; also called IG2 199

ratio of binding, variant/native IgG1 (mean) [2]: 0.92 ratio
ratio of binding, variant/native IgG1 (mean) [3]: 0.21 ratio
ratio of binding, variant/native IgG1 (mean) [4]: 1.21 ratio
B8: anti-IgE E27 IgG1 variant R292(309)H (antibody)
heavy: not shown
light: B1 light
notes: Fc variant of E27; also called IG2 81

ratio of binding, variant/native IgG1 (mean) [2]: 0.45 ratio
ratio of binding, variant/native IgG1 (mean) [3]: 0.47 ratio
ratio of binding, variant/native IgG1 (mean) [4]: 0.56 ratio
B13: anti-IgE E27 IgG1 variant R292(309)Q (antibody)
heavy: not shown
light: B1 light
notes: Fc variant of E27; also called IG2 82

ratio of binding, variant/native IgG1 (mean) [2]: 1.15 ratio
ratio of binding, variant/native IgG1 (mean) [3]: 0.71 ratio
ratio of binding, variant/native IgG1 (mean) [4]: 1.64 ratio
B14: anti-IgE E27 IgG1 variant R292(309)K (antibody)
heavy: not shown
light: B1 light
notes: Fc variant of E27; also called IG2 80

ratio of binding, variant/native IgG1 (mean) [1]: 0.94 ratio
ratio of binding, variant/native IgG1 (mean) [2]: 0.88 ratio
ratio of binding, variant/native IgG1 (mean) [3]: 0.76 ratio
ratio of binding, variant/native IgG1 (mean) [4]: 1.28 ratio
B15: anti-IgE E27 IgG1 variant K334(353)G (antibody)
heavy: not shown
light: B1 light
notes: Fc variant of E27; also called IG2 179

ratio of binding, variant/native IgG1 (mean) [1]: 0.88 ratio
ratio of binding, variant/native IgG1 (mean) [2]: 0.33 ratio
ratio of binding, variant/native IgG1 (mean) [4]: 0.39 ratio
B19: anti-IgE E27 IgG1 variant S298(317)V (antibody)
heavy: not shown
light: B1 light
notes: Fc variant of E27; also called IG2 218

ratio of binding, variant/native IgG1 (mean) [2]: 0.88 ratio
ratio of binding, variant/native IgG1 (mean) [3]: 0.54 ratio
ratio of binding, variant/native IgG1 (mean) [4]: 0.91 ratio
B20: anti-IgE E27 IgG1 variant R292(309)N (antibody)
heavy: not shown
light: B1 light
notes: Fc variant of E27; also called IG2 83

ratio of binding, variant/native IgG1 (mean) [1]: 0.97 ratio
ratio of binding, variant/native IgG1 (mean) [2]: 1.26 ratio
ratio of binding, variant/native IgG1 (mean) [3]: 1.09 ratio
ratio of binding, variant/native IgG1 (mean) [4]: 2.06 ratio
B23: anti-IgE E27 IgG1 variant K334(353)H (antibody)
heavy: not shown
light: B1 light
notes: Fc variant of E27

ratio of binding, variant/native IgG1 (mean) [2]: 0.9 ratio
ratio of binding, variant/native IgG1 (mean) [3]: 0.27 ratio
ratio of binding, variant/native IgG1 (mean) [4]: 0.94 ratio
B26: anti-IgE E27 IgG1 variant R292(309)A (antibody)
heavy: not shown
light: B1 light
notes: Fc variant of E27; also called IG2 31; G31

ratio of binding, variant/native IgG1 (mean) [1]: 1.17 ratio
ratio of binding, variant/native IgG1 (mean) [2]: 1.3 ratio
ratio of binding, variant/native IgG1 (mean) [3]: 0.74 ratio
ratio of binding, variant/native IgG1 (mean) [4]: 2.75 ratio
B27: anti-IgE E27 IgG1 variant K334(353)E (antibody)
heavy: not shown
light: B1 light
notes: Fc variant of E27

ratio of binding, variant/native IgG1 (mean) [1]: 1.19 ratio
ratio of binding, variant/native IgG1 (mean) [2]: 1.66 ratio
ratio of binding, variant/native IgG1 (mean) [3]: 0.35 ratio
B29: anti-IgE E27 IgG1 variant S298(317)A/E333(352)A/K334(353)A (antibody)
heavy: EVQLVESGGGLVQPGGSLRLSCAVSGYSITSGYSWNWIRQAPGKGLEWVASIKYSGETKYNPSVKGRITISRDDSKNTFYLQMNSLRAEDTAVYYCARGSHYFGHWHFAVWGQGTLVTVSSASTKGPSVFPLAPSSKSTSGGTAALGCLVKDYFPEPVTVSWNSGALTSGVHTFPAVLQSSGLYSLSSVVTVPSSSLGTQTYICNVNHKPSNTKVDKKVEPKSCDKTHTCPPCPAPELLGGPSVFLFPPKPKDTLMISRTPEVTCVVVDVSHEDPEVKFNWYVDGVEVHNAKTKPREEQYNATYRVVSVLTVLHQDWLNGKEYKCKVSNKALPAPIAATISKAKGQPREPQVYTLPPSREEMTKNQVSLTCLVKGFYPSDIAVEWESNGQPENNYKTTPPVLDSDGSFFLYSKLTVDKSRWQQGNVFSCSVMHEALHNHYTQKSLSLSPGK
light: B1 light
notes: Fc variant of E27; also called IG2 110; Ser298Ala/Glu333Ala/Lys334Ala
